# From patent US7060677B1, “Antimicrobial activity of the first cationic cluster of human lactoferrin” (priority 1999, dated 2006)
# “Also recorded” adds a separate entry of the source. Marks after values point to notes of the source that are not given here.
# What was measured:
# [1] = tested on: L. monocytogenes; assay: Assay for antibacterial activity (in vitro killing, viable count); assay type: cell-based, Listeria monocytogenes strain EGD; details: for CFU of bacteria, L. monocytogenes: 4 μM protein, approx. 1 × 10^6 CFU, PBS-Tw (pH 6.0), 3 h at 37° C., mean ± SD of 3–5 experiments
# Description: (§1) Listeria monocytogenes strain EGD. Klebsiella pneumoniae (43816), and Escherichia coli O54 were purchased from the American Type Culture Collection (Rockville, Md.). Antibiotic resistant S. aureus, K. pneumoniae and E. coli were cultured overnight in nutrient broth (Oxoid, Basingstoke, UK) at 37° C., diluted in tryptase soya broth (TSB, Oxoid) and cultured for an additional 2 h in a shaking waterbath at 37° C. L. monocytogenes was cultured overnight in brain heart infusion broth (BHI, Oxoid) at 37° C. diluted and cultured for an additional 2 h in a shaking waterbath at 37° C.
# (§2) In short, bacteria were washed with phosphate-buffered saline (PBS) (pH 7.4) and diluted to a concentration of approximately 2×10^6 CFU/ml of phosphate-buffered saline (pH 6.0) supplemented with 0.1% (v/v) Tween-20 (hereafter designated as PBS-Tw). […] At various time intervals (range 0–4 h) after incubation at 37° C. the number of viable bacteria was determined microbiologically. As negative controls, bovine serum albumin (BSA; Sigma) or no peptide were included.
# [2] = tested on: antibiotic resistant S. aureus; assay: as above; assay type: cell-based, Staphylococcus aureus strain 2141; details: for CFU of bacteria, antibiotic resistant S. aureus: 4 μM protein, approx. 1 × 10^6 CFU, PBS-Tw (pH 6.0), 3 h at 37° C., mean ± SD of 3–5 experiments
# Description: as §1, §2
# [3] = tested on: K. pneumoniae; assay: as above; assay type: cell-based, Klebsiella pneumoniae (43816)
# Description: as §1, §2
# [4] = tested on: E. coli; assay: as above; assay type: cell-based, Escherichia coli O54; details: for CFU of bacteria, E. coli: 4 μM protein, approx. 1 × 10^6 CFU, PBS-Tw (pH 6.0), 3 h at 37° C., mean ± SD of 3–5 experiments
# Description: as §1, §2
# [5] = tested on: the various bacteria (L. monocytogenes, antibiotic resistant S. aureus, K. pneumoniae, E. coli); assay: Assay for antibacterial activity, statements on the various bacteria together; assay type: cell-based
# Description: as §1, §2
# [6] = tested on: L. monocytogenes; assay: Assay for membrane permeability (propidium iodide, FACS); assay type: cell-based, Listeria monocytogenes; details: period of analysis 4 h after addition of the protein
# Description: (§3) Changes in the membrane permeability of bacteria upon exposure to hLF, hLF^−3N and related peptides were monitored after incubation with propidium iodide (PI; Sigma), using FACS analysis (12, 20). Stock solutions of PI (1 mg/ml of deionized water) were prepared. Approximately 2×10^6 bacteria/ml of PBS-Tw were incubated for various intervals at 37° C., washed, incubated for 5 min with 1 μg of PI/ml (final concentration) and then analyzed with a FACScan (Becton & Dickinson, CA) equipped with a argon-laser at 488 nm. The photomultiplier voltages were routinely set at 500 V for PI fluorescence intensity in the second channel. Data acquisition and analysis were controlled using the Lysis II software.
# [7] = tested on: E. coli; assay: as above; assay type: cell-based, Escherichia coli; details: period of analysis 4 h after addition of the protein
# Description: as §3
# [8] = tested on: bacteria; assay: Assay for membrane permeability (propidium iodide, FACS), bacteria in general; assay type: cell-based
# Description: as §3
# [9] = tested on: L. monocytogenes; assay: Assay for non-specific esterase activity (SFDA, FACS); assay type: cell-based, Listeria monocytogenes; details: within 1–2 hours after addition; FIG. 4: 4 μM
# Description: (§4) As an indication of intracellular effects of hLF, hLF^−3N and related peptides (e.g., hLF (1–11) and hLF(21–31) in bacteria, the non-specific esterase activity of bacteria upon exposure to these antimicrobial proteins/peptides was assessed using 5-sulfofluorescein diacetate (SFDA; Molecular Probes, Leiden, The Netherlands) and FACS analysis (21). For these experiments, a stock solution of SFDA (1 mg/ml of ethanol) was prepared. Approximately 2×10^6 CFU of bacteria/ml of PBS-Tw were incubated with various concentrations of hLF, hLF^−3N and hLF related peptides for various intervals at 37° C., washed, incubated with 100 μM of SFDA/ml (final concentration ethanol 20% v/v) for 20 min at room temperature in the dark and then analyzed with a FACScan using the photomultiplier voltage of the first channel set at 700 V.
# [10] = tested on: E. coli; assay: as above; assay type: cell-based, Escherichia coli; details: within 1–2 hours after addition
# Description: as §4
# [11] = tested on: bacteria; assay: Assay for non-specific esterase activity (SFDA, FACS), bacteria in general; assay type: cell-based
# [12] = tested on: antibiotic resistant S. aureus; assay: Experimental thigh muscle infection; assay type: in vivo, mice; details: FIG. 5
# Description: In short, specific pathogen-free, male. Swiss mice weighing 20–25 g (Broekman Institute, Someren, The Netherlands) were anaesthetized with a single intraperitoneal injection of 0.1 ml of saline containing 1 mg fluanisone and 0.03 mg fentanyl citrate (Hypnorm, Janssen Pharmaceutics, Tilburg, The Netherlands). Preceding scintigraphy, a subcutaneous injection of 0.1 ml, containing 0.2 mg diazepam (Valium, Hoffmann-La Roche, Mijdrecht, The Netherlands) was administered. […] As a control, mice were injected with 0.2 ml of saline containing BSA or saline without any peptide. […] Next, the infected thigh muscles were removed and, after weighing, homogenized in 4 ml of PBS. Appropriate dilutions of the homogenates were applied onto diagnostic sensitivity test plates (Oxoid), and the number of colonies counted after an overnight culture at 37° C. Results are expressed as the number of CFUs per gram of infected tissue.
# [13] = Pharmacology of 99mTc-labeled hLF and peptides by scintigraphy in infected mice; details: mouse, in vivo
# Description: Lactoferrins and related peptides were labeled with ^99mTechnetium (^99mTc) as described (22, 23). Briefly, 10 μl of a peptide solution (1 mg/ml of HAc) was added to 2 μl of an aseptic solution of 0.5 mg of stannous pyrophosphate/ml (Dept. of Clinical Pharmacy and Toxicology. Leiden University Medical Center (LUMC). Leiden. The Netherlands). Immediately thereafter, 4 μl of a solution of 10 mg of KBH4 (crystalline. Sigma) per ml of 0.1 M NaOH was added. After addition of 0.1 ml of ^99mTc-sodium pertechnetate solution (200 MBq/ml. Mallinckrodt Medical BV, Petten, The Netherlands), the mixture was gently stirred at ambient temperature for 30 min and then was ready for use. Quality control of the labeling was performed by RP-HPLC analysis using a Sep-Pak C18 cartridge (Waters, Milford, Mass.) in 20 ml of 0.01 M HAc. After rinsing with 20 ml of 0.01 M HAc, proteins and peptides were eluted with 2 ml of methanol (Sigma). […]
# On the scintigrams, anatomically adjusted regions of interest (ROI) were drawn over the various organs and both thighs providing data about clearance of ^99mTc-peptides and accumulation at the site of infection. […] The amount of radioactivity in the heart was corrected for decay and expressed as a percentage of injected dose (% ID).
molecule,measurement,setting,value
"hLF: Natural human lactoferrin (Mr 77,000) purified from the fresh milk of a single donor, N-terminus intact; SEQ ID NO:1 (protein, listed as Homo sapiens) GRRRRSVQWCAVSQPEATKCFQWQRNMRKVRGPPVSCIKRDSPIQCIQAIAENRADAVTLDGGFIYEAGLAPYKLRPVAAEVYGTERQPRTHYYAVAVVKKGGSFQLNELQGLKSCHTGLRRTAGWNVPIGTLRPFLNWTGPPEPIEAAVARFFSASCVPGADKGQFPNLCRLCAGTGENKCAFSSQEPYFSYSGAFKCLRDGAGDVAFIRESTVFEDLSDEAERDEYELLCPDNTRKPVDKFKDCHLARVPSHAVVARSVNGKEDAIWNLLRQAQEKFGKDKSPKFQLFGSPSGQKDLLFKDSAIGFSRVPPRIDSGLYLGSGYFTAIQNLRKSEEEVAARRARVVWCAVGEQELRKCNQWSGLSEGSVTCSSASTTEDCIALVLKGEADAMSLDGGYVYTAGKCGLVPVLAENYKSQQSSDPDPNCVDRPVEGYLAVAVVRRSDTSLTWNSVKGKKSCHTAVDRTAGWNIPMGLLFNQTGSCKFDEYFSQSCAPGSDPRSNLCALCIGDEQGENKCVPNSNERYYGYTGAFRCLAENAGDVAFVKDVTVLQNTDGNNNEAWAKDLKLADFALLCLDGKRKPVTEARSCHLAMAPNHAVVSRMDKVERLKQVLLHQQAKFGRNGSDCPDKFCLFQSETKNLLFNDNTECLARLHGKTTYEKYLGPQYVAGITNLKKCSTSPLLEACEFLRK","CFU of bacteria, L. monocytogenes",[1],"2.4 ± 0.9 × 10^4*^,** CFU"
same,"CFU of bacteria, L. monocytogenes",[1]; listed as hLF^3N,4.8 ± 2.4 × 10^5 CFU
same,Killing of L. monocytogenes by the protein (in words),"[1]; dose-dependent, FIGS. 1A–1E",killed
same,"CFU of bacteria, antibiotic resistant S. aureus",[2],"6.9 ± 2.1 × 10^4*^,** CFU"
same,"CFU of bacteria, antibiotic resistant S. aureus",[2]; listed as hLF^3N,5.6 ± 1.9 × 10^5 CFU
same,Killing of antibiotic resistant S. aureus by the protein (in words),"[2]; dose-dependent, FIGS. 1A–1E",killed
same,"CFU of bacteria, K. pneumoniae","[3]; 4 μM protein, approx. 1 × 10^6 CFU, PBS-Tw (pH 6.0), 3 h at 37° C., mean ± SD of 3–5 experiments, listed as hLF^3N",6.8 ± 1.5 × 10^5 CFU
same,Killing of K. pneumoniae by the protein (in words),"[3]; dose-dependent, FIGS. 1A–1E",killed
same,"CFU of bacteria, E. coli",[4],3.0 ± 0.3 × 10^6 CFU
same,"CFU of bacteria, E. coli",[4]; listed as hLF^3N,9.5 ± 8.2 × 10^5 CFU
same,Killing of E. coli by the protein (in words),"[4]; Table 1, even at concentrations up to 12 μM",not killed
same,"Speed of killing these bacteria, natural hLF compared with hLF^−3N","[5]; 4 μM, FIGS. 1C–1E, p<0.05",faster (p<0.05) than hLF^−3N
same,Effect on the number of viable bacteria at 4° C.,[5]; 4° C.,no affect; also recorded: not able to kill bacteria
same,"Potency in killing, natural hLF compared with hLF^−3N","[5]; dose-dependent killing, FIGS. 1A–1B, p<0.05",more potent (p<0.05) than hLF^−3N
same,Change of the membrane permeability of L. monocytogenes,[6],not followed by a significant change
same,Change of the membrane permeability of E. coli,[7],not followed by a significant change
same,"Membrane permeability of the bacteria, proteins (conclusions)",[8],without affecting
same,Intracellular non-specific esterase activity of L. monocytogenes,[9],inhibited
same,Intracellular non-specific esterase activity of E. coli,[10],not
same,Non-specific esterase activity of the bacteria (conclusions),[11],inhibited
same,Effect on the non-specific esterase activity at 4° C.,[11]; 4° C.,no affect; also recorded: not able
same,Amount at which maximum effects on viable bacteria were seen,"[12]; mice infected with antibiotic resistant S. aureus, 24 h after injection",1 nmol
same,Number of viable bacteria in mice infected with antibiotic resistant S. aureus,"[12]; within 24 h after intravenous injection, thigh muscle",reduced in a dose-dependent fashion
same,"Amount at the site of infection, hLF compared with hLF^−3N",[13],did not differ
same,mean t1/2 of removal from the circulation,[13],approximately 19 min
